Molecular target: histone H2A-N38C (Xenopus laevis)
Test: cross-linking

With histone H2A-N38C (natural protein) the stoichiometry N was 2.

Reference: article PMC5757783
